Here are results for ten molecules from patent publication EP4692114A1, “CALCITONIN ANALOGUE, AND DERIVATIVE THEREOF AND USE THEREOF” (Hangzhou Sciwind Biosciences Co., Ltd., priority 2023, dated 2024).

First the molecules themselves.
T1: human amylin receptor (AMY3) on CHO-K1/Gal5/AMY3 cells (human, UniProt P30988 25-474; O60896 24-148)
T1 sequence (looked up) 1: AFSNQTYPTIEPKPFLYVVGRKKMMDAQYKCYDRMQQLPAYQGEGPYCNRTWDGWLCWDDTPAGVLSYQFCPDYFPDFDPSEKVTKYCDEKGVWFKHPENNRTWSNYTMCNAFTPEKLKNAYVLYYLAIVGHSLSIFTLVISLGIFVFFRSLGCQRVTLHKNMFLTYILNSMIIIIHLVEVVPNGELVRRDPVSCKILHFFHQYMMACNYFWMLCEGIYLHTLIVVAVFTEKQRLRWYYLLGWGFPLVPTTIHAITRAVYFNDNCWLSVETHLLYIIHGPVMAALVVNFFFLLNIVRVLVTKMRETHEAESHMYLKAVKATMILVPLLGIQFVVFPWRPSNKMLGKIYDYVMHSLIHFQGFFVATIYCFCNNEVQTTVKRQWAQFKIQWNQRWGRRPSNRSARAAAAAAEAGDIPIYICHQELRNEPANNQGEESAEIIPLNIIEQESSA
T1 sequence (looked up) 2: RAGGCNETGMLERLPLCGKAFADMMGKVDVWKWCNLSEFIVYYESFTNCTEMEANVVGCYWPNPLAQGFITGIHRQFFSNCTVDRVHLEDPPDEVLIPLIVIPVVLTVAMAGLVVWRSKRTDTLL

B1: calcitonin derivative M29 (peptide)
peptide: {C20 diacid-γGlu}-ASQLSTSVLGRLSQELHRLQDYPRTDVGSGSP-NH2
SMILES: CC(C)C[C@H](NC(=O)[C@H](CCCNC(=N)N)NC(=O)CNC(=O)[C@H](CC(C)C)NC(=O)[C@@H](NC(=O)[C@H](CO)NC(=O)[C@@H](NC(=O)[C@H](CO)NC(=O)[C@H](CC(C)C)NC(=O)[C@H](CCC(N)=O)NC(=O)[C@H](CO)NC(=O)[C@H](C)NC(=O)CC[C@H](NC(=O)CCCCCCCCCCCCCCCCCCC(=O)O)C(=O)O)[C@@H](C)O)C(C)C)C(=O)N[C@@H](CO)C(=O)N[C@@H](CCC(N)=O)C(=O)N[C@@H](CCC(=O)O)C(=O)N[C@@H](CC(C)C)C(=O)N[C@@H](Cc1c[nH]cn1)C(=O)N[C@@H](CCCNC(=N)N)C(=O)N[C@@H](CC(C)C)C(=O)N[C@@H](CCC(N)=O)C(=O)N[C@@H](CC(=O)O)C(=O)N[C@@H](Cc1ccc(O)cc1)C(=O)N1CCC[C@H]1C(=O)N[C@@H](CCCNC(=N)N)C(=O)N[C@H](C(=O)N[C@@H](CC(=O)O)C(=O)N[C@H](C(=O)NCC(=O)N[C@@H](CO)C(=O)NCC(=O)N[C@@H](CO)C(=O)N1CCC[C@H]1C(N)=O)C(C)C)[C@@H](C)O
B2: calcitonin derivative M15 (peptide)
peptide: {C20 diacid-γGlu}-ASQLSTAVLGRLSQELHRLQDYPRTQVGSGSP-NH2
SMILES: CC(C)C[C@H](NC(=O)[C@H](CCCNC(=N)N)NC(=O)CNC(=O)[C@H](CC(C)C)NC(=O)[C@@H](NC(=O)[C@H](C)NC(=O)[C@@H](NC(=O)[C@H](CO)NC(=O)[C@H](CC(C)C)NC(=O)[C@H](CCC(N)=O)NC(=O)[C@H](CO)NC(=O)[C@H](C)NC(=O)CC[C@H](NC(=O)CCCCCCCCCCCCCCCCCCC(=O)O)C(=O)O)[C@@H](C)O)C(C)C)C(=O)N[C@@H](CO)C(=O)N[C@@H](CCC(N)=O)C(=O)N[C@@H](CCC(=O)O)C(=O)N[C@@H](CC(C)C)C(=O)N[C@@H](Cc1c[nH]cn1)C(=O)N[C@@H](CCCNC(=N)N)C(=O)N[C@@H](CC(C)C)C(=O)N[C@@H](CCC(N)=O)C(=O)N[C@@H](CC(=O)O)C(=O)N[C@@H](Cc1ccc(O)cc1)C(=O)N1CCC[C@H]1C(=O)N[C@@H](CCCNC(=N)N)C(=O)N[C@H](C(=O)N[C@@H](CCC(N)=O)C(=O)N[C@H](C(=O)NCC(=O)N[C@@H](CO)C(=O)NCC(=O)N[C@@H](CO)C(=O)N1CCC[C@H]1C(N)=O)C(C)C)[C@@H](C)O
B3: calcitonin derivative M28 (peptide)
peptide: {C20 diacid-γGlu}-SSQLSTSVLGRLSQELHRLQDYPRTDVGSGSP-NH2
SMILES: CC(C)C[C@H](NC(=O)[C@H](CCCNC(=N)N)NC(=O)CNC(=O)[C@H](CC(C)C)NC(=O)[C@@H](NC(=O)[C@H](CO)NC(=O)[C@@H](NC(=O)[C@H](CO)NC(=O)[C@H](CC(C)C)NC(=O)[C@H](CCC(N)=O)NC(=O)[C@H](CO)NC(=O)[C@H](CO)NC(=O)CC[C@H](NC(=O)CCCCCCCCCCCCCCCCCCC(=O)O)C(=O)O)[C@@H](C)O)C(C)C)C(=O)N[C@@H](CO)C(=O)N[C@@H](CCC(N)=O)C(=O)N[C@@H](CCC(=O)O)C(=O)N[C@@H](CC(C)C)C(=O)N[C@@H](Cc1c[nH]cn1)C(=O)N[C@@H](CCCNC(=N)N)C(=O)N[C@@H](CC(C)C)C(=O)N[C@@H](CCC(N)=O)C(=O)N[C@@H](CC(=O)O)C(=O)N[C@@H](Cc1ccc(O)cc1)C(=O)N1CCC[C@H]1C(=O)N[C@@H](CCCNC(=N)N)C(=O)N[C@H](C(=O)N[C@@H](CC(=O)O)C(=O)N[C@H](C(=O)NCC(=O)N[C@@H](CO)C(=O)NCC(=O)N[C@@H](CO)C(=O)N1CCC[C@H]1C(N)=O)C(C)C)[C@@H](C)O
B4: calcitonin derivative M14 (peptide)
peptide: {C20 diacid-γGlu}-ASQLSTAVLGRLSQELHRLEEYPRTDVGSGSP-NH2
SMILES: CC(C)C[C@H](NC(=O)[C@H](CCCNC(=N)N)NC(=O)CNC(=O)[C@H](CC(C)C)NC(=O)[C@@H](NC(=O)[C@H](C)NC(=O)[C@@H](NC(=O)[C@H](CO)NC(=O)[C@H](CC(C)C)NC(=O)[C@H](CCC(N)=O)NC(=O)[C@H](CO)NC(=O)[C@H](C)NC(=O)CC[C@H](NC(=O)CCCCCCCCCCCCCCCCCCC(=O)O)C(=O)O)[C@@H](C)O)C(C)C)C(=O)N[C@@H](CO)C(=O)N[C@@H](CCC(N)=O)C(=O)N[C@@H](CCC(=O)O)C(=O)N[C@@H](CC(C)C)C(=O)N[C@@H](Cc1c[nH]cn1)C(=O)N[C@@H](CCCNC(=N)N)C(=O)N[C@@H](CC(C)C)C(=O)N[C@@H](CCC(=O)O)C(=O)N[C@@H](CCC(=O)O)C(=O)N[C@@H](Cc1ccc(O)cc1)C(=O)N1CCC[C@H]1C(=O)N[C@@H](CCCNC(=N)N)C(=O)N[C@H](C(=O)N[C@@H](CC(=O)O)C(=O)N[C@H](C(=O)NCC(=O)N[C@@H](CO)C(=O)NCC(=O)N[C@@H](CO)C(=O)N1CCC[C@H]1C(N)=O)C(C)C)[C@@H](C)O
B5: calcitonin derivative M53 (peptide)
peptide: {C20 diacid-βAsp}-ASQLSTAVLGRLSEELHRLQDYPRTDVGSGSP-NH2
SMILES: CC(C)C[C@H](NC(=O)[C@H](CCCNC(=N)N)NC(=O)CNC(=O)[C@H](CC(C)C)NC(=O)[C@@H](NC(=O)[C@H](C)NC(=O)[C@@H](NC(=O)[C@H](CO)NC(=O)[C@H](CC(C)C)NC(=O)[C@H](CCC(N)=O)NC(=O)[C@H](CO)NC(=O)[C@H](C)NC(=O)C[C@H](NC(=O)CCCCCCCCCCCCCCCCCCC(=O)O)C(=O)O)[C@@H](C)O)C(C)C)C(=O)N[C@@H](CO)C(=O)N[C@@H](CCC(=O)O)C(=O)N[C@@H](CCC(=O)O)C(=O)N[C@@H](CC(C)C)C(=O)N[C@@H](Cc1c[nH]cn1)C(=O)N[C@@H](CCCNC(=N)N)C(=O)N[C@@H](CC(C)C)C(=O)N[C@@H](CCC(N)=O)C(=O)N[C@@H](CC(=O)O)C(=O)N[C@@H](Cc1ccc(O)cc1)C(=O)N1CCC[C@H]1C(=O)N[C@@H](CCCNC(=N)N)C(=O)N[C@H](C(=O)N[C@@H](CC(=O)O)C(=O)N[C@H](C(=O)NCC(=O)N[C@@H](CO)C(=O)NCC(=O)N[C@@H](CO)C(=O)N1CCC[C@H]1C(N)=O)C(C)C)[C@@H](C)O
B6: calcitonin derivative M13 (peptide)
peptide: {C20 diacid-γGlu}-ASQLSTAVLGRLSQELHRLEDYPRTDVGSGSP-NH2
SMILES: CC(C)C[C@H](NC(=O)[C@H](CCCNC(=N)N)NC(=O)CNC(=O)[C@H](CC(C)C)NC(=O)[C@@H](NC(=O)[C@H](C)NC(=O)[C@@H](NC(=O)[C@H](CO)NC(=O)[C@H](CC(C)C)NC(=O)[C@H](CCC(N)=O)NC(=O)[C@H](CO)NC(=O)[C@H](C)NC(=O)CC[C@H](NC(=O)CCCCCCCCCCCCCCCCCCC(=O)O)C(=O)O)[C@@H](C)O)C(C)C)C(=O)N[C@@H](CO)C(=O)N[C@@H](CCC(N)=O)C(=O)N[C@@H](CCC(=O)O)C(=O)N[C@@H](CC(C)C)C(=O)N[C@@H](Cc1c[nH]cn1)C(=O)N[C@@H](CCCNC(=N)N)C(=O)N[C@@H](CC(C)C)C(=O)N[C@@H](CCC(=O)O)C(=O)N[C@@H](CC(=O)O)C(=O)N[C@@H](Cc1ccc(O)cc1)C(=O)N1CCC[C@H]1C(=O)N[C@@H](CCCNC(=N)N)C(=O)N[C@H](C(=O)N[C@@H](CC(=O)O)C(=O)N[C@H](C(=O)NCC(=O)N[C@@H](CO)C(=O)NCC(=O)N[C@@H](CO)C(=O)N1CCC[C@H]1C(N)=O)C(C)C)[C@@H](C)O
B7: calcitonin derivative M63 (peptide)
peptide: {C20 diacid-γGlu-AEEA-AEEA-AEEA-AEEA}-ASQLSTAVLGRLSEELHRLQDYPRTDVGSGSP-NH2
SMILES: CC(C)C[C@H](NC(=O)[C@H](CCCNC(=N)N)NC(=O)CNC(=O)[C@H](CC(C)C)NC(=O)[C@@H](NC(=O)[C@H](C)NC(=O)[C@@H](NC(=O)[C@H](CO)NC(=O)[C@H](CC(C)C)NC(=O)[C@H](CCC(N)=O)NC(=O)[C@H](CO)NC(=O)[C@H](C)NC(=O)COCCOCCNC(=O)COCCOCCNC(=O)COCCOCCNC(=O)COCCOCCNC(=O)CC[C@H](NC(=O)CCCCCCCCCCCCCCCCCCC(=O)O)C(=O)O)[C@@H](C)O)C(C)C)C(=O)N[C@@H](CO)C(=O)N[C@@H](CCC(=O)O)C(=O)N[C@@H](CCC(=O)O)C(=O)N[C@@H](CC(C)C)C(=O)N[C@@H](Cc1c[nH]cn1)C(=O)N[C@@H](CCCNC(=N)N)C(=O)N[C@@H](CC(C)C)C(=O)N[C@@H](CCC(N)=O)C(=O)N[C@@H](CC(=O)O)C(=O)N[C@@H](Cc1ccc(O)cc1)C(=O)N1CCC[C@H]1C(=O)N[C@@H](CCCNC(=N)N)C(=O)N[C@H](C(=O)N[C@@H](CC(=O)O)C(=O)N[C@H](C(=O)NCC(=O)N[C@@H](CO)C(=O)NCC(=O)N[C@@H](CO)C(=O)N1CCC[C@H]1C(N)=O)C(C)C)[C@@H](C)O

*1 amine or outer side, *2 acyl side, *3 side chain or, on linkers, in order; H or OH if unused. Primed or numbered codes have the meaning given here. The star is where a group is joined. C20 diacid = O=C(O)CCCCCCCCCCCCCCCCCCC(=O)*; C18 diacid = O=C(O)CCCCCCCCCCCCCCCCC(=O)*; γGlu = O=C(O)[C@H](CCC(=O)[*:2])N[*:1]; βAsp = O=C(O)[C@H](CC(=O)[*:2])N[*:1]; Inp′ = not defined here; Trx′ = not defined here; AEEA = NCCOCCOCC(=O)O

This assay deals with T1, human amylin receptor (AMY3) on …. In words: cell-based or functional assay.
With B1, the “EC50/nM, CRE-luciferase in amylin receptor/CRE-luc CHO cells” value worked out at 0.017 nM.

As to B2, the “EC50/nM, CRE-luciferase in amylin receptor/CRE-luc CHO cells” value worked out at 0.016 nM. The value for B3 was 0.017 nM; that for B4 was 0.017 nM; that for B5 was 0.017 nM. The value for {C20 diacid-Inp′-AEEA-AEEA}-ASQLSTAVLGRLSEELHRLQDYPRTDVGSGSP-NH2 [calcitonin derivative M62] was 0.016 nM; that for {C20 diacid-Inp′}-ASQLSTAVLGRLSDELHRLQDYPRTDVGSGSP-NH2 [calcitonin derivative M47] was 0.082 nM.

With B6, the “EC50/nM, CRE-luciferase in amylin receptor/CRE-luc CHO cells” value was determined as 0.017 nM. The same measure for {C18 diacid-Trx′}-ASQLSTAVLGRLSDELHRLQDYPRTDVGSGSP-NH2 (reading uncertain) [calcitonin derivative M46]: 0.119 nM.

For the molecule B7, the “EC50/nM, CRE-luciferase in amylin receptor/CRE-luc CHO cells” value is 0.037 nM.
